Source: patent US20210032299A1 (Eli Lilly, published 2021)
Positions count from the first letter of the chain named. Starred links: 1 amine or outer side, 2 acyl side, 3 side chain; linkers in the order of their positions; H or OH if unused. Non-standard residues stand in square brackets, D forms with d. Groups on a side chain read outwards from the residue. No end group written: not given here. *: point of attachment. C20 diacid = O=C(O)CCCCCCCCCCCCCCCCCCC(=O)*; C18 diacid = O=C(O)CCCCCCCCCCCCCCCCC(=O)*; αMePhe(2-F) = C[C@](N)(Cc1ccccc1F)C(=O)O; γGlu = O=C(O)[C@H](CCC(=O)[*:2])N[*:1]; αMeF = C[C@](N)(Cc1ccccc1)C(=O)O; AEEA = NCCOCCOCC(=O)O; Aib = CC(C)(N)C(=O)O

B1: Example 26 (peptide)
peptide: Y[Aib]EGT[αMePhe(2-F)]ISDYSIALDKK([AEEA-AEEA-γGlu-C20 diacid])HQ[Aib]EFVNWLLAGGPSSGAPPPS-NH2
modifications: N-terminus assumed
SMILES: CC[C@H](C)[C@H](NC(=O)[C@H](CO)NC(=O)[C@H](Cc1ccc(O)cc1)NC(=O)[C@H](CC(=O)O)NC(=O)[C@H](CO)NC(=O)[C@@H](NC(=O)[C@](C)(Cc1ccccc1F)NC(=O)[C@@H](NC(=O)CNC(=O)[C@H](CCC(=O)O)NC(=O)C(C)(C)NC(=O)[C@@H](N)Cc1ccc(O)cc1)[C@@H](C)O)[C@@H](C)CC)C(=O)N[C@@H](C)C(=O)N[C@@H](CC(C)C)C(=O)N[C@@H](CC(=O)O)C(=O)N[C@@H](CCCCN)C(=O)N[C@@H](CCCCNC(=O)COCCOCCNC(=O)COCCOCCNC(=O)CC[C@H](NC(=O)CCCCCCCCCCCCCCCCCCC(=O)O)C(=O)O)C(=O)N[C@@H](Cc1c[nH]cn1)C(=O)N[C@@H](CCC(N)=O)C(=O)NC(C)(C)C(=O)N[C@@H](CCC(=O)O)C(=O)N[C@@H](Cc1ccccc1)C(=O)N[C@H](C(=O)N[C@@H](CC(N)=O)C(=O)N[C@@H](Cc1c[nH]c2ccccc12)C(=O)N[C@@H](CC(C)C)C(=O)N[C@@H](CC(C)C)C(=O)N[C@@H](C)C(=O)NCC(=O)NCC(=O)N1CCC[C@H]1C(=O)N[C@@H](CO)C(=O)N[C@@H](CO)C(=O)NCC(=O)N[C@@H](C)C(=O)N1CCC[C@H]1C(=O)N1CCC[C@H]1C(=O)N1CCC[C@H]1C(=O)N[C@@H](CO)C(N)=O)C(C)C
B2: Example 25 (peptide)
peptide: Y[Aib]EGT[αMeF]ISDYSIALDKK([AEEA-AEEA-γGlu-C20 diacid])HQ[Aib]EFVNWLLAGGPSSGAPPPS-NH2
modifications: N-terminus assumed
SMILES: CC[C@H](C)[C@H](NC(=O)[C@H](CO)NC(=O)[C@H](Cc1ccc(O)cc1)NC(=O)[C@H](CC(=O)O)NC(=O)[C@H](CO)NC(=O)[C@@H](NC(=O)[C@](C)(Cc1ccccc1)NC(=O)[C@@H](NC(=O)CNC(=O)[C@H](CCC(=O)O)NC(=O)C(C)(C)NC(=O)[C@@H](N)Cc1ccc(O)cc1)[C@@H](C)O)[C@@H](C)CC)C(=O)N[C@@H](C)C(=O)N[C@@H](CC(C)C)C(=O)N[C@@H](CC(=O)O)C(=O)N[C@@H](CCCCN)C(=O)N[C@@H](CCCCNC(=O)COCCOCCNC(=O)COCCOCCNC(=O)CC[C@H](NC(=O)CCCCCCCCCCCCCCCCCCC(=O)O)C(=O)O)C(=O)N[C@@H](Cc1c[nH]cn1)C(=O)N[C@@H](CCC(N)=O)C(=O)NC(C)(C)C(=O)N[C@@H](CCC(=O)O)C(=O)N[C@@H](Cc1ccccc1)C(=O)N[C@H](C(=O)N[C@@H](CC(N)=O)C(=O)N[C@@H](Cc1c[nH]c2ccccc12)C(=O)N[C@@H](CC(C)C)C(=O)N[C@@H](CC(C)C)C(=O)N[C@@H](C)C(=O)NCC(=O)NCC(=O)N1CCC[C@H]1C(=O)N[C@@H](CO)C(=O)N[C@@H](CO)C(=O)NCC(=O)N[C@@H](C)C(=O)N1CCC[C@H]1C(=O)N1CCC[C@H]1C(=O)N1CCC[C@H]1C(=O)N[C@@H](CO)C(N)=O)C(C)C
B3: Example 27 (peptide)
peptide: YXEGTFISDYSILLDKKAQXEFVQWLLAGGPSSGAPPPS
modifications: D-Ala2; K17((2-[2-(2-Amino-ethoxy)-ethoxy]-acetyl)2-(γ-Glu)-CO-(CH2)16-CO2H); Aib20; C-terminal amide
B4: Example 28 (peptide)
peptide: B3 peptide with Q24N, A28E
modifications: D-Ala2; K17((2-[2-(2-Amino-ethoxy)-ethoxy]-acetyl)2-(γ-Glu)-CO-(CH2)16-CO2H); Aib20; C-terminal amide
B5: Example 29 (peptide)
peptide: B3 peptide with Q24E
modifications: D-Ala2; K17((2-[2-(2-Amino-ethoxy)-ethoxy]-acetyl)2-(γ-Glu)-CO-(CH2)16-CO2H); Aib20; C-terminal amide
B6: Example 30 (peptide)
peptide: Ac-[dY]AEGT[αMePhe(2-F)]ISDYSIALDKK([AEEA-AEEA-γGlu-C18 diacid])HQ[Aib]EFVNYLLAGGPSSGAPPPS-NH2
SMILES: CC[C@H](C)[C@H](NC(=O)[C@H](CO)NC(=O)[C@H](Cc1ccc(O)cc1)NC(=O)[C@H](CC(=O)O)NC(=O)[C@H](CO)NC(=O)[C@@H](NC(=O)[C@](C)(Cc1ccccc1F)NC(=O)[C@@H](NC(=O)CNC(=O)[C@H](CCC(=O)O)NC(=O)[C@H](C)NC(=O)[C@@H](Cc1ccc(O)cc1)NC(C)=O)[C@@H](C)O)[C@@H](C)CC)C(=O)N[C@@H](C)C(=O)N[C@@H](CC(C)C)C(=O)N[C@@H](CC(=O)O)C(=O)N[C@@H](CCCCN)C(=O)N[C@@H](CCCCNC(=O)COCCOCCNC(=O)COCCOCCNC(=O)CC[C@H](NC(=O)CCCCCCCCCCCCCCCCC(=O)O)C(=O)O)C(=O)N[C@@H](Cc1c[nH]cn1)C(=O)N[C@@H](CCC(N)=O)C(=O)NC(C)(C)C(=O)N[C@@H](CCC(=O)O)C(=O)N[C@@H](Cc1ccccc1)C(=O)N[C@H](C(=O)N[C@@H](CC(N)=O)C(=O)N[C@@H](Cc1ccc(O)cc1)C(=O)N[C@@H](CC(C)C)C(=O)N[C@@H](CC(C)C)C(=O)N[C@@H](C)C(=O)NCC(=O)NCC(=O)N1CCC[C@H]1C(=O)N[C@@H](CO)C(=O)N[C@@H](CO)C(=O)NCC(=O)N[C@@H](C)C(=O)N1CCC[C@H]1C(=O)N1CCC[C@H]1C(=O)N1CCC[C@H]1C(=O)N[C@@H](CO)C(N)=O)C(C)C
B7: Example 31 (peptide)
peptide: Y[Aib]EGTFISDYSILLDKK([AEEA-AEEA-γGlu-C18 diacid])HQ[Aib]DFVNYLLAAGPSSGAPPPS-NH2
modifications: N-terminus assumed
SMILES: CC[C@H](C)[C@H](NC(=O)[C@H](CO)NC(=O)[C@H](Cc1ccc(O)cc1)NC(=O)[C@H](CC(=O)O)NC(=O)[C@H](CO)NC(=O)[C@@H](NC(=O)[C@H](Cc1ccccc1)NC(=O)[C@@H](NC(=O)CNC(=O)[C@H](CCC(=O)O)NC(=O)C(C)(C)NC(=O)[C@@H](N)Cc1ccc(O)cc1)[C@@H](C)O)[C@@H](C)CC)C(=O)N[C@@H](CC(C)C)C(=O)N[C@@H](CC(C)C)C(=O)N[C@@H](CC(=O)O)C(=O)N[C@@H](CCCCN)C(=O)N[C@@H](CCCCNC(=O)COCCOCCNC(=O)COCCOCCNC(=O)CC[C@H](NC(=O)CCCCCCCCCCCCCCCCC(=O)O)C(=O)O)C(=O)N[C@@H](Cc1c[nH]cn1)C(=O)N[C@@H](CCC(N)=O)C(=O)NC(C)(C)C(=O)N[C@@H](CC(=O)O)C(=O)N[C@@H](Cc1ccccc1)C(=O)N[C@H](C(=O)N[C@@H](CC(N)=O)C(=O)N[C@@H](Cc1ccc(O)cc1)C(=O)N[C@@H](CC(C)C)C(=O)N[C@@H](CC(C)C)C(=O)N[C@@H](C)C(=O)N[C@@H](C)C(=O)NCC(=O)N1CCC[C@H]1C(=O)N[C@@H](CO)C(=O)N[C@@H](CO)C(=O)NCC(=O)N[C@@H](C)C(=O)N1CCC[C@H]1C(=O)N1CCC[C@H]1C(=O)N1CCC[C@H]1C(=O)N[C@@H](CO)C(N)=O)C(C)C
B8: Example 32 (peptide)
peptide: Y[dA]EGTLISDYSILLDKK([AEEA-AEEA-γGlu-C18 diacid])AQ[Aib]DFVNWLLAQGPSSGAPPPS-NH2
modifications: N-terminus assumed
SMILES: CC[C@H](C)[C@H](NC(=O)[C@H](CO)NC(=O)[C@H](Cc1ccc(O)cc1)NC(=O)[C@H](CC(=O)O)NC(=O)[C@H](CO)NC(=O)[C@@H](NC(=O)[C@H](CC(C)C)NC(=O)[C@@H](NC(=O)CNC(=O)[C@H](CCC(=O)O)NC(=O)[C@@H](C)NC(=O)[C@@H](N)Cc1ccc(O)cc1)[C@@H](C)O)[C@@H](C)CC)C(=O)N[C@@H](CC(C)C)C(=O)N[C@@H](CC(C)C)C(=O)N[C@@H](CC(=O)O)C(=O)N[C@@H](CCCCN)C(=O)N[C@@H](CCCCNC(=O)COCCOCCNC(=O)COCCOCCNC(=O)CC[C@H](NC(=O)CCCCCCCCCCCCCCCCC(=O)O)C(=O)O)C(=O)N[C@@H](C)C(=O)N[C@@H](CCC(N)=O)C(=O)NC(C)(C)C(=O)N[C@@H](CC(=O)O)C(=O)N[C@@H](Cc1ccccc1)C(=O)N[C@H](C(=O)N[C@@H](CC(N)=O)C(=O)N[C@@H](Cc1c[nH]c2ccccc12)C(=O)N[C@@H](CC(C)C)C(=O)N[C@@H](CC(C)C)C(=O)N[C@@H](C)C(=O)N[C@@H](CCC(N)=O)C(=O)NCC(=O)N1CCC[C@H]1C(=O)N[C@@H](CO)C(=O)N[C@@H](CO)C(=O)NCC(=O)N[C@@H](C)C(=O)N1CCC[C@H]1C(=O)N1CCC[C@H]1C(=O)N1CCC[C@H]1C(=O)N[C@@H](CO)C(N)=O)C(C)C

biological target: human glucagon receptor (human, UniProt P47871 26-477); experiment: cell-based or functional assay
Sequence (P47871 26-477): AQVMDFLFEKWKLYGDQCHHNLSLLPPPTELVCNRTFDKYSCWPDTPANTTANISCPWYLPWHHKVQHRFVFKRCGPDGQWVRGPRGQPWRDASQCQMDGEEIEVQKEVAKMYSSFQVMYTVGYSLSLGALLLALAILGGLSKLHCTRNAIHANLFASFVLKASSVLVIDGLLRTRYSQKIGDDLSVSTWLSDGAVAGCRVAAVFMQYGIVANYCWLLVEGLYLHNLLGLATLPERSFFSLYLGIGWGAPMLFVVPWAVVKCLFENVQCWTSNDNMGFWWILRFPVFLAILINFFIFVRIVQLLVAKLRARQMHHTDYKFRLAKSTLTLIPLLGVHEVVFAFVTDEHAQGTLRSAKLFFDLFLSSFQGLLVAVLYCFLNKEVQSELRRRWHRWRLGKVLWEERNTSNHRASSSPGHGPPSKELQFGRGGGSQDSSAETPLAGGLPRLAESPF

| Binder | hGcgR cAMP Rel EC50 [µM] |
| --- | --- |
| B1 | > 5 |
| B2 | > 5 |
| B3 | > 5 |
| B4 | > 5 |
| B5 | > 5 |
| B6 | > 5 |
| B7 | 1.75 |
| B8 | > 5 |

biological target: T1, human glucose-dependent insulinotropic peptide receptor (human, UniProt P48546 22-466); experiment: cell-based or functional assay
T1 sequence (looked up): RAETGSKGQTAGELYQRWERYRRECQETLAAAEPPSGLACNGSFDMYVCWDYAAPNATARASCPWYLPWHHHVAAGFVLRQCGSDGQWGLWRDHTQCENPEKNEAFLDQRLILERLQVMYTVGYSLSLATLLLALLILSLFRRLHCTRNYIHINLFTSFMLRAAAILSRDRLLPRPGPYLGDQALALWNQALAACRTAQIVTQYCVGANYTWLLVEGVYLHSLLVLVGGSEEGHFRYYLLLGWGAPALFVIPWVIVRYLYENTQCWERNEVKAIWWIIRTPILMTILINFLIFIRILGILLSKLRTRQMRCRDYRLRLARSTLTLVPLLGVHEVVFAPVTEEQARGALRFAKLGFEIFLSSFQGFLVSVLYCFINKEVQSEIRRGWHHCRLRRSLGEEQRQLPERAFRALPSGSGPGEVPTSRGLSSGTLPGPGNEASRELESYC

| Binder | hGIPR cAMP Rel EC50 [nM] |
| --- | --- |
| B1 | 0.00991 |
| B2 | 0.0155 |
| B3 | 0.0132 |
| B4 | 0.0118 |
| B5 | 0.00679 |
| B6 | 0.00572 |
| B7 | 0.0148 |
| B8 | 0.00469 |

biological target: human GLP-1 receptor (human, UniProt P43220 24-463); experiment: cell-based or functional assay

| Binder | hGLP1R cAMP Rel EC50 [µM] |
| --- | --- |
| B1 | 0.00569 |
| B2 | 0.00839 |
| B3 | > 5 |
| B4 | > 5 |
| B5 | > 5 |
| B6 | > 5 |
| B7 | > 5 |
| B8 | > 5 |
